Publication doi:10.1101/2022.05.13.491800 (bioRxiv, 2022)

B1: Smc6 (natural protein, S. cerevisiae, UniProt Q12749 1-1114, looked up)
chain: MISTTISGKRPIEQVDDELLSLTAQQENEEQQQQRKRRRHQFAPMTQFNSNTLDEDSGFRSSSDVATADQDNFLEESPSGYIKKVILRNFMCHEHFELELGSRLNFIVGNNGSGKSAILTAITIGLGAKASETNRGSSLKDLIREGCYSAKIILHLDNSKYGAYQQGIFGNEIIVERIIKRDGPASFSLRSENGKEISNKKKDIQTVVDYFSVPVSNPMCFLSQDAARSFLTASTSQDKYSHFMKGTLLQEITENLLYASAIHDSAQENMALHLENLKSLKAEYEDAKKLLRELNQTSDLNERKMLLQAKSLWIDVAHNTDACKNLENEISGIQQKVDEVTEKIRNRQEKIERYTSDGTTIEAQIDAKVIYVNEKDSEHQNARELLRDVKSRFEKEKSNQAEAQSNIDQGRKKVDALNKTIAHLEEELTKEMGGDKDQMRQELEQLEKANEKLREVNNSLVVSLQDVKNEERDIQHERESELRTISRSIQNKKVELQNIAKGNDTFLMNFDRNMDRLLRTIEQRKNEFETPAIGPLGSLVTIRKGFEKWTRSIQRAISSSLNAFVVSNPKDNRLFRDIMRSCGIRSNIPIVTYCLSQFDYSKGRAHGNYPTIVDALEFSKPEIECLFVDLSRIERIVLIEDKNEARNFLQRNPVNVNMALSLRDRRSGFQLSGGYRLDTVTYQDKIRLKVNSSSDNGTQYLKDLIEQETKELQNIRDRYEEKLSEVRSRLKEIDGRLKSTKNEMRKTNFRMTELKMNVGKVVDTGILNSKINERKNQEQAIASYEAAKEELGLKIEQIAQEAQPIKEQYDSTKLALVEAQDELQQLKEDINSRQSKIQKYKDDTIYYEDKKKVYLENIKKIEVNVAALKEGIQRQIQNACAFCSKERIENVDLPDTQEEIKRELDKVSRMIQKAEKSLGLSQEEVIALFEKCRNKYKEGQKKYMEIDEALNRLHNSLKARDQNYKNAEKGTCFDADMDFRASLKVRKFSGNLSFIKDTKSLEIYILTTNDEKARNVDTLSGGEKSFSQMALLLATWKPMRSRIIALDEFDVFMDQVNRKIGTTLIVKKLKDIARTQTIIITPQDIGKIADIDSSGVSIHRMRDPERQNNSNFYN
B2: Smc5 (natural protein, S. cerevisiae, UniProt Q08204 1-1093, looked up)
chain: MTSLIDLGRYVERTHHGEDTEPRSKRVKIAKPDLSSFQPGSIIKIRLQDFVTYTLTEFNLSPSLNMIIGPNGSGKSTFVCAVCLGLAGKPEYIGRSKKVEDFIKNGQDVSKIEITLKNSPNVTDIEYIDARDETIKITRIITRSKRRSDYLINDYQVSESVVKTLVAQLNIQLDNLCQFLSQERVEEFARLKSVKLLVETIRSIDASLLDVLDELRELQGNEQSLQKDLDFKKAKIVHLRQESDKLRKSVESLRDFQNKKGEIELHSQLLPYVKVKDHKEKLNIYKEEYERAKANLRAILKDKKPFANTKKTLENQVEELTEKCSLKTDEFLKAKEKINEIFEKLNTIRDEVIKKKNQNEYYRGRTKKLQATIISTKEDFLRSQEILAQTHLPEKSVFEDIDIKRKEIINKEGEIRDLISEIDAKANAINHEMRSIQRQAESKTKSLTTTDKIGILNQDQDLKEVRDAVLMVREHPEMKDKILEPPIMTVSAINAQFAAYLAQCVDYNTSKALTVVDSDSYKLFANPILDKFKVNLRELSSADTTPPVPAETVRDLGFEGYLSDFITGDKRVMKMLCQTSKIHTIPVSRRELTPAQIKKLITPRPNGKILFKRIIHGNRLVDIKQSAYGSKQVFPTDVSIKQTNFYQGSIMSNEQKIRIENEIINLKNEYNDRKSTLDALSNQKSGYRHELSELASKNDDINREAHQLNEIRKKYTMRKSTIETLREKLDQLKREARKDVSQKIKDIDDQIQQLLLKQRHLLSKMASSMKSLKNCQKELISTQILQFEAQNMDVSMNDVIGFFNEREADLKSQYEDKKKFVKEMRDTPEFQSWMREIRSYDQDTKEKLNKVAEKYEEEGNFNLSFVQDVLDKLESEIAMVNHDESAVTILDQVTAELRELEHTVPQQSKDLETIKAKLKEDHAVLEPKLDDIVSKISARFARLFNNVGSAGAVRLEKPKDYAEWKIEIMVKFRDNAPLKKLDSHTQSGGERAVSTVLYMIALQEFTSAPFRVVDEINQGMDSRNERIVHKAMVENACAENTSQYFLITPKLLTGLHYHEKMRIHCVMAGSWIPNPSEDPKMIHFGETSNYSFD

How the values were obtained:
[1] = target: B2; experiment: SEC
[2] = target: B1; experiment: co-purification

| Binder | stoichiometry N [1] | binding result [2] |
| --- | --- | --- |
| Nse5 (natural protein, S. cerevisiae, UniProt Q03718 1-556, looked up) MDGALINSVLYVSPRNGAHYFVELTEKHLLAFEMLNSMCLLENYDHVLLFLECQFGKSHNLAVIPFDIILVLFTLSTLSEYYKEPILRANDPYNTSRETLSRRALKLLQKYLAILKEFDSEQYNLYDLELLRCQFFLAIDTLTPKKQKWGFDRFRRTKSESGVTYRQNASVDPELDQAKTFKNPYRSYISCLEQRNTILGNRLLNLKLNEPGEFINMILWTLSNSLQESTPLFLSSHEIWMPLLEILIDLFSCRQDYFIQHEVAQNVSKSLFVQRLSESPLAVFFESLNTRNFANRFSEYVFLNCDYKLPSDNYATPVHPVYNGENTIVDTYIPTIKCSPLYKSQKSLALRRKLIGSCFKLLLRVPDGHRLITPRIVADDVIQGISRTLASFNDILQFKKFFMTENLSQESYFIPLLAEGTLSEILKDTQECVVILTLVENLSDGVSFCNEVIGLVKSKCFAFTEQCSQASYEEAVLNIEKCDVCLLVLLRYLLHLIGTEAILDAKEQLEMLHAIEKNDSGRRQWAKALNLGNDPPLLYPIVSQMFGVHDKSVIIE | ~1 | – |
| B1 | ~1 | – |
| Nse6 (natural protein, S. cerevisiae, UniProt P40026 1-464, looked up) MGSVNSSPNEEFETVPDSQISGFDSPLIPTSVGSYFRDDDDDEKVHPNFISDPENDSLNSDEEFSSLENSDLNLSGAKAESGDDFDPILKRTIISKRKAPSNNEDEEIVKTPRKLVNYVPLKIFNLGDSFDDTITTTVAKLQDLKKEILDSPRSNKSIVITSNTVAKSELQKSIKFSGSIPEIYLDVVTKETISDKYKDWHFISKNCHYEQLMDLEMKDTAYSFLFGSSRSQGKVPEFVHLKCPSITNLLVLFGVNQEKCNSLKINYEKKENSRYDNLCTIFPVNKMLKFLMYFYSDDDNDDVREFFLKAFICLILDRKVFNAMESDHRLCFKVLELFNEAHFINSYFEIVDKNDFFLHYRLLQIFPHLQSALLRRRFSEKQGRTETIQQNIIKEFNEFFDCKNYKNLLYFILTMYGSKFIPFGPKCQVTEYFKDCILDISNETTNDVEISILKGILNLFSKIR | ~1 | – |
| B2 | – | binds |
